Measurements as given in patent publication US20260217833A1 (APTEVO RESEARCH AND DEVELOPMENT, published 2026).

Target: T1, Human PD-L1 full-length (human, UniProt Q9NZQ7 19-290)
T1 construct: also called PDL01021; CHOK1SV/huPDL1
Assay: flow cytometry, CHOK1SV/human PD-L1 cells

T1 sequence (Q9NZQ7 19-290): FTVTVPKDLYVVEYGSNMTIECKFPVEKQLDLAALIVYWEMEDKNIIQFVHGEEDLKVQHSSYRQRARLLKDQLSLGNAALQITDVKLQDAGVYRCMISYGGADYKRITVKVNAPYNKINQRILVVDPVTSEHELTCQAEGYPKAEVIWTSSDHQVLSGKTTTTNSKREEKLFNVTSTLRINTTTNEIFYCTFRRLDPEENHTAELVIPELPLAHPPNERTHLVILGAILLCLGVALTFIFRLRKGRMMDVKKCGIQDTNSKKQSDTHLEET

binding result	Binder
binds	CD4001072 (bispecific antibody) Fc-Knob x PDL_5F9: EPKSSDKTHTCPPCPAPPAAAPSVFLFPPKPKDTLMISRTPEVTCVVVDVSHEDPEVKFNWYVDGVEVHNAKTKPREEQYNSTYRVVSVLTVLHQDWLNGKEYKCAVSNKALPAPIEKTISKAKGQPREPQVYTLPPSRDELTKNQVSLWCLVKGFYPSDIAVEWESNGQPENNYKTTPPVLDSDGSFFLYSKLTVDKSRWQQGNVFSCSVMHEALHNHYTQKSLSLSPGGGGSPSEVQLVESGGGLVKPGGSLRLSCAASGFTFSDYGMAWVRQAPGKGLEWVAFITSLAYIIYYADSVKGRFTISRDNAKNSLYLQMNSLRAEDTAVYYCARNYGSSPYYFDYWGQGTLVTVSSGGGGSGGGGSGGGGSGGGGSDIQMTQSPSSLSASVGDRVTITCRASQDINKFLSWYQQKPGKAPKLLIHYTSSLQPGVPSRFSGSGSGTDFTLTISSLQPEDFATYYCLQYDNLYTFGQGTKLEIK CD40_1D5 x Fc-Hole x PDL_5F9: DIVMSQSPSSLAVSVGEKVTMSCKSSQSLLFSVNQKNYLAWYQQKPGQSPKLLIYWASTRESGVPDRFTGSGSGTDFTLTIGSVKAEDLAVYYCQHYYSYPWTFGGGTKLEIKGGGGSGGGGSGGGGSGGGGSQVQLQQSGAELMNPGASVRISCKATGYTFSTSWIEWIKQRPGHGLEWIGEILPGSGSTNYNEKFKGKATFTADTSSNTAYMQLSSLTFEDSAVYYCARGDDGSYVRWYFDVWGAGTTVTVSSEPKSSDKTHTCPPCPAPPAAAPSVFLFPPKPKDTLMISRTPEVTCVVVDVSHEDPEVKFNWYVDGVEVHNAKTKPREEQYNSTYRVVSVLTVLHQDWLNGKEYKCAVSNKALPAPIEKTISKAKGQPREPQVYTLPPSRDELTKNQVSLSCAVKGFYPSDIAVEWESNGQPENNYKTTPPVLDSDGSFFLVSKLTVDKSRWQQGNVFSCSVMHEALHNRFTQKSLSLSPGGGGSPSEVQLVESGGGLVKPGGSLRLSCAASGFTFSDYGMAWVRQAPGKGLEWVAFITSLAYIIYYADSVKGRFTISRDNAKNSLYLQMNSLRAEDTAVYYCARNYGSSPYYFDYWGQGTLVTVSSGGGGSGGGGSGGGGSGGGGSDIQMTQSPSSLSASVGDRVTITCRASQDINKFLSWYQQKPGKAPKLLIHYTSSLQPGVPSRFSGSGSGTDFTLTISSLQPEDFATYYCLQYDNLYTFGQGTKLEIK
binds	CD4001075 (bispecific antibody) CD40_1D5 x Fc-Knob: DIVMSQSPSSLAVSVGEKVTMSCKSSQSLLFSVNQKNYLAWYQQKPGQSPKLLIYWASTRESGVPDRFTGSGSGTDFTLTIGSVKAEDLAVYYCQHYYSYPWTFGGGTKLEIKGGGGSGGGGSGGGGSGGGGSQVQLQQSGAELMNPGASVRISCKATGYTFSTSWIEWIKQRPGHGLEWIGEILPGSGSTNYNEKFKGKATFTADTSSNTAYMQLSSLTFEDSAVYYCARGDDGSYVRWYFDVWGAGTTVTVSSEPKSSDKTHTCPPCPAPPAAAPSVFLFPPKPKDTLMISRTPEVTCVVVDVSHEDPEVKFNWYVDGVEVHNAKTKPREEQYNSTYRVVSVLTVLHQDWLNGKEYKCAVSNKALPAPIEKTISKAKGQPREPQVYTLPPSRDELTKNQVSLWCLVKGFYPSDIAVEWESNGQPENNYKTTPPVLDSDGSFFLYSKLTVDKSRWQQGNVFSCSVMHEALHNHYTQKSLSLSPG CD40_1D5 x Fc-Hole x PDL_5F9: DIVMSQSPSSLAVSVGEKVTMSCKSSQSLLFSVNQKNYLAWYQQKPGQSPKLLIYWASTRESGVPDRFTGSGSGTDFTLTIGSVKAEDLAVYYCQHYYSYPWTFGGGTKLEIKGGGGSGGGGSGGGGSGGGGSQVQLQQSGAELMNPGASVRISCKATGYTFSTSWIEWIKQRPGHGLEWIGEILPGSGSTNYNEKFKGKATFTADTSSNTAYMQLSSLTFEDSAVYYCARGDDGSYVRWYFDVWGAGTTVTVSSEPKSSDKTHTCPPCPAPPAAAPSVFLFPPKPKDTLMISRTPEVTCVVVDVSHEDPEVKFNWYVDGVEVHNAKTKPREEQYNSTYRVVSVLTVLHQDWLNGKEYKCAVSNKALPAPIEKTISKAKGQPREPQVYTLPPSRDELTKNQVSLSCAVKGFYPSDIAVEWESNGQPENNYKTTPPVLDSDGSFFLVSKLTVDKSRWQQGNVFSCSVMHEALHNRFTQKSLSLSPGGGGSPSEVQLVESGGGLVKPGGSLRLSCAASGFTFSDYGMAWVRQAPGKGLEWVAFITSLAYIIYYADSVKGRFTISRDNAKNSLYLQMNSLRAEDTAVYYCARNYGSSPYYFDYWGQGTLVTVSSGGGGSGGGGSGGGGSGGGGSDIQMTQSPSSLSASVGDRVTITCRASQDINKFLSWYQQKPGKAPKLLIHYTSSLQPGVPSRFSGSGSGTDFTLTISSLQPEDFATYYCLQYDNLYTFGQGTKLEIK

The remaining lines, values behind:

Binder	binding result
CD4001076 (bispecific antibody) PDL_5F9 x Fc-Knob: EVQLVESGGGLVKPGGSLRLSCAASGFTFSDYGMAWVRQAPGKGLEWVAFITSLAYIIYYADSVKGRFTISRDNAKNSLYLQMNSLRAEDTAVYYCARNYGSSPYYFDYWGQGTLVTVSSGGGGSGGGGSGGGGSGGGGSDIQMTQSPSSLSASVGDRVTITCRASQDINKFLSWYQQKPGKAPKLLIHYTSSLQPGVPSRFSGSGSGTDFTLTISSLQPEDFATYYCLQYDNLYTFGQGTKLEIKEPKSSDKTHTCPPCPAPPAAAPSVFLFPPKPKDTLMISRTPEVTCVVVDVSHEDPEVKFNWYVDGVEVHNAKTKPREEQYNSTYRVVSVLTVLHQDWLNGKEYKCAVSNKALPAPIEKTISKAKGQPREPQVYTLPPSRDELTKNQVSLWCLVKGFYPSDIAVEWESNGQPENNYKTTPPVLDSDGSFFLYSKLTVDKSRWQQGNVFSCSVMHEALHNHYTQKSLSLSPG PDL_5F9 x Fc-Hole x CD40_2H7: EVQLVESGGGLVKPGGSLRLSCAASGFTFSDYGMAWVRQAPGKGLEWVAFITSLAYIIYYADSVKGRFTISRDNAKNSLYLQMNSLRAEDTAVYYCARNYGSSPYYFDYWGQGTLVTVSSGGGGSGGGGSGGGGSGGGGSDIQMTQSPSSLSASVGDRVTITCRASQDINKFLSWYQQKPGKAPKLLIHYTSSLQPGVPSRFSGSGSGTDFTLTISSLQPEDFATYYCLQYDNLYTFGQGTKLEIKEPKSSDKTHTCPPCPAPPAAAPSVFLFPPKPKDTLMISRTPEVTCVVVDVSHEDPEVKFNWYVDGVEVHNAKTKPREEQYNSTYRVVSVLTVLHQDWLNGKEYKCAVSNKALPAPIEKTISKAKGQPREPQVYTLPPSRDELTKNQVSLSCAVKGFYPSDIAVEWESNGQPENNYKTTPPVLDSDGSFFLVSKLTVDKSRWQQGNVFSCSVMHEALHNRFTQKSLSLSPGGGGSPSDIVMTQSHKFMSTSVGDRVSITCKASQDVNTAVAWYQQKPGQSPKLLIYSASYRYTGVPDRFTGSGSGTDFTFTISSVQAEDLAVYYCQQHYSTPWTFGGGTKLEIKGGGGSGGGGSGGGGSGGGGSQVQLQQSGAELAKPGASVKMSCKASGYAFTTYWMHWVKQRPGQGLEWIGYINPTTGYTDYNQKFKDKATLTADKSSSTAYMQLSSLTSEDSAVYYCARWGLPPFAYWGQGTLVTVSA	binds
CD4001078 (bispecific antibody) PDL_5F9 x Fc-Knob: EVQLVESGGGLVKPGGSLRLSCAASGFTFSDYGMAWVRQAPGKGLEWVAFITSLAYIIYYADSVKGRFTISRDNAKNSLYLQMNSLRAEDTAVYYCARNYGSSPYYFDYWGQGTLVTVSSGGGGSGGGGSGGGGSGGGGSDIQMTQSPSSLSASVGDRVTITCRASQDINKFLSWYQQKPGKAPKLLIHYTSSLQPGVPSRFSGSGSGTDFTLTISSLQPEDFATYYCLQYDNLYTFGQGTKLEIKEPKSSDKTHTCPPCPAPPAAAPSVFLFPPKPKDTLMISRTPEVTCVVVDVSHEDPEVKFNWYVDGVEVHNAKTKPREEQYNSTYRVVSVLTVLHQDWLNGKEYKCAVSNKALPAPIEKTISKAKGQPREPQVYTLPPSRDELTKNQVSLWCLVKGFYPSDIAVEWESNGQPENNYKTTPPVLDSDGSFFLYSKLTVDKSRWQQGNVFSCSVMHEALHNHYTQKSLSLSPG PDL_5F9 x Fc-Hole x CD40_1D5: EVQLVESGGGLVKPGGSLRLSCAASGFTFSDYGMAWVRQAPGKGLEWVAFITSLAYIIYYADSVKGRFTISRDNAKNSLYLQMNSLRAEDTAVYYCARNYGSSPYYFDYWGQGTLVTVSSGGGGSGGGGSGGGGSGGGGSDIQMTQSPSSLSASVGDRVTITCRASQDINKFLSWYQQKPGKAPKLLIHYTSSLQPGVPSRFSGSGSGTDFTLTISSLQPEDFATYYCLQYDNLYTFGQGTKLEIKEPKSSDKTHTCPPCPAPPAAAPSVFLFPPKPKDTLMISRTPEVTCVVVDVSHEDPEVKFNWYVDGVEVHNAKTKPREEQYNSTYRVVSVLTVLHQDWLNGKEYKCAVSNKALPAPIEKTISKAKGQPREPQVYTLPPSRDELTKNQVSLSCAVKGFYPSDIAVEWESNGQPENNYKTTPPVLDSDGSFFLVSKLTVDKSRWQQGNVFSCSVMHEALHNRFTQKSLSLSPGGGGSPSDIVMSQSPSSLAVSVGEKVTMSCKSSQSLLFSVNQKNYLAWYQQKPGQSPKLLIYWASTRESGVPDRFTGSGSGTDFTLTIGSVKAEDLAVYYCQHYYSYPWTFGGGTKLEIKGGGGSGGGGSGGGGSGGGGSQVQLQQSGAELMNPGASVRISCKATGYTFSTSWIEWIKQRPGHGLEWIGEILPGSGSTNYNEKFKGKATFTADTSSNTAYMQLSSLTFEDSAVYYCARGDDGSYVRWYFDVWGAGTTVTVSS	binds
CD4001081 (bispecific antibody) Fc-knob x CD40_1D5: EPKSSDKTHTCPPCPAPPAAAPSVFLFPPKPKDTLMISRTPEVTCVVVDVSHEDPEVKFNWYVDGVEVHNAKTKPREEQYNSTYRVVSVLTVLHQDWLNGKEYKCAVSNKALPAPIEKTISKAKGQPREPQVYTLPPSRDELTKNQVSLWCLVKGFYPSDIAVEWESNGQPENNYKTTPPVLDSDGSFFLYSKLTVDKSRWQQGNVFSCSVMHEALHNHYTQKSLSLSPGGGGSPSDIVMSQSPSSLAVSVGEKVTMSCKSSQSLLFSVNQKNYLAWYQQKPGQSPKLLIYWASTRESGVPDRFTGSGSGTDFTLTIGSVKAEDLAVYYCQHYYSYPWTFGGGTKLEIKGGGGSGGGGSGGGGSGGGGSQVQLQQSGAELMNPGASVRISCKATGYTFSTSWIEWIKQRPGHGLEWIGEILPGSGSTNYNEKFKGKATFTADTSSNTAYMQLSSLTFEDSAVYYCARGDDGSYVRWYFDVWGAGTTVTVSS PDL_5F9 x Fc-Hole x CD40_1D5: EVQLVESGGGLVKPGGSLRLSCAASGFTFSDYGMAWVRQAPGKGLEWVAFITSLAYIIYYADSVKGRFTISRDNAKNSLYLQMNSLRAEDTAVYYCARNYGSSPYYFDYWGQGTLVTVSSGGGGSGGGGSGGGGSGGGGSDIQMTQSPSSLSASVGDRVTITCRASQDINKFLSWYQQKPGKAPKLLIHYTSSLQPGVPSRFSGSGSGTDFTLTISSLQPEDFATYYCLQYDNLYTFGQGTKLEIKEPKSSDKTHTCPPCPAPPAAAPSVFLFPPKPKDTLMISRTPEVTCVVVDVSHEDPEVKFNWYVDGVEVHNAKTKPREEQYNSTYRVVSVLTVLHQDWLNGKEYKCAVSNKALPAPIEKTISKAKGQPREPQVYTLPPSRDELTKNQVSLSCAVKGFYPSDIAVEWESNGQPENNYKTTPPVLDSDGSFFLVSKLTVDKSRWQQGNVFSCSVMHEALHNRFTQKSLSLSPGGGGSPSDIVMSQSPSSLAVSVGEKVTMSCKSSQSLLFSVNQKNYLAWYQQKPGQSPKLLIYWASTRESGVPDRFTGSGSGTDFTLTIGSVKAEDLAVYYCQHYYSYPWTFGGGTKLEIKGGGGSGGGGSGGGGSGGGGSQVQLQQSGAELMNPGASVRISCKATGYTFSTSWIEWIKQRPGHGLEWIGEILPGSGSTNYNEKFKGKATFTADTSSNTAYMQLSSLTFEDSAVYYCARGDDGSYVRWYFDVWGAGTTVTVSS	binds
